Article PMC3312455 (2009)

T1: VEGFR2/KDR ECD (Homo sapiens, UniProt P35968)
T1 chain: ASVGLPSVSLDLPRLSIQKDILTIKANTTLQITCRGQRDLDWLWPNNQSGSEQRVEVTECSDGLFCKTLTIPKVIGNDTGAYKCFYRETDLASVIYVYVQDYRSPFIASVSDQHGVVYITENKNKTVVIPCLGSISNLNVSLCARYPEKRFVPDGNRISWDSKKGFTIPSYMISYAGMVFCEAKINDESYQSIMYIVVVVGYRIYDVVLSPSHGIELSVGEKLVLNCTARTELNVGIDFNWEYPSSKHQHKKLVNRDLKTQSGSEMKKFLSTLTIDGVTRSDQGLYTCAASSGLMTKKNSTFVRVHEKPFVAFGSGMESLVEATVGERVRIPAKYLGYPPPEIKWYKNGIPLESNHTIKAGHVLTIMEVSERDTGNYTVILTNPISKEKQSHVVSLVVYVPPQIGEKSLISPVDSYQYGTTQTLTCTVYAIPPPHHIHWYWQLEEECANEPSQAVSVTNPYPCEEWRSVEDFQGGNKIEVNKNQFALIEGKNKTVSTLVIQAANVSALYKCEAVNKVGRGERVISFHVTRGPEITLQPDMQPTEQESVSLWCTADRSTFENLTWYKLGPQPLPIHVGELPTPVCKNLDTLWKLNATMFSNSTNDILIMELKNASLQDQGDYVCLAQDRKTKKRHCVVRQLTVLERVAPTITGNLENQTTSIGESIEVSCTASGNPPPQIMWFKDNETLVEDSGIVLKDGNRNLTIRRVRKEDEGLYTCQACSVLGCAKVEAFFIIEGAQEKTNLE

B1: HIV-Tat (protein)
chain: MEPVDPRLEPWKHPGSQPKTACTNCYCKKCCFHCQVCFITKALGISYGRKKRRQRRRAPQGSQTHQVSLSKQPTSQSRGDPTGPKE
B2: VEGF-A165 (protein)
chain: MTDRQTDTAPSPSYHLLPGRRRTVDAAASRGQGPEPAPGGGVEGVGARGVALKLFVQLLGCSRFGGAVVRAGEAEPSGAARSASSGREEPQPEEGEEEEEKEEERGPQWRLGARKPGSWTGEAAVCADSAPAARAPQALARASGRGGRVARRGAEESGPPHSPSRRGSASRAGPGRASETMNFLLSWVHWSLALLLYLHHAKWSQAAPMAEGGGQNHHEVVKFMDVYQRSYCHPIETLVDIFQEYPDEIEYIFKPSCVPLMRCGGCCNDEGLECVPTEESNITMQIMRIKPHQGQHIGEMSFLQHNKCECRPKKDRARQEKKSVRGKGKGQKRKRKKSRYKSWSVPCGPCSERRKHLFVQDPQTCKCSCKNTDSRCKARQLELNERTCRCDKPRR

Molecular target: T1, VEGFR2/KDR ECD
Assay: SPR

Binder | Kd [nM]
B1 | 0.07
B2 | 0.041
